Values quoted from earlier work, collected in patent US8232251B2, “Compounds for delivery of therapeutic and imaging moieties to nerve cells” (Manzanita Pharmaceuticals, Inc., priority 1998, dated 2012).

Molecular target: T1, p75 (Homo sapiens, UniProt P08138)
T1 sequence (P08138 29-427): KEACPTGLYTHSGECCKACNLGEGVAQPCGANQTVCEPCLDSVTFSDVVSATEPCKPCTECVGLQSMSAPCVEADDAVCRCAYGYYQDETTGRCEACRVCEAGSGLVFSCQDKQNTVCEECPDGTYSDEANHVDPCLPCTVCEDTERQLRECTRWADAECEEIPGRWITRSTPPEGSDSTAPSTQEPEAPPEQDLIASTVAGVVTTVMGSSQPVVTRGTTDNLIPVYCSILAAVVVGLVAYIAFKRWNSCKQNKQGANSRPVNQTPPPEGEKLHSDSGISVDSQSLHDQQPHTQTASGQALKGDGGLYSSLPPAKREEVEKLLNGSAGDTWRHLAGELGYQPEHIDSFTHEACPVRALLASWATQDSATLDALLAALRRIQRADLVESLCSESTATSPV
Conditions: lower affinity binding to more abundant p75

Q: For “NGF: nerve growth factor, first identified member of the neurotrophin family; used as binding agent B”, which Kd is on record?
A: The Kd was 1 nM.
